T1: human BCMA on cells (NCI-H929, U266B1, HEK293 huBCMA) (human, UniProt Q02223 1-184)
T1 construct: whole, on cells; also called cell surface BCMA antigen
T1 sequence (looked up): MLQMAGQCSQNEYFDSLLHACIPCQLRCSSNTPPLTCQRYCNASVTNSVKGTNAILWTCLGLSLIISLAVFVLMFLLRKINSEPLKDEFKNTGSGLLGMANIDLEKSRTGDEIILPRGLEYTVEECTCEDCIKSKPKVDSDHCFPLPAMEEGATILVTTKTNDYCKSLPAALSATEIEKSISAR

T2: recombinant human BCMA-his fusion protein (ACRO Biosystem, Cat. No. BCA-H522y) (human, UniProt Q02223 1-54)
T2 construct: extracellular domain; Bought protein; also called huBCMA-his; hu BCMA-his; not shown: His tag
T2 sequence (looked up): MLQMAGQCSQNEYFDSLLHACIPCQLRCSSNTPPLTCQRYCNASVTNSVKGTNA

T3: recombinant human BCMA-mFc fusion protein (human; mouse)
T3 construct: also called huBCMA-mFc
T3 chain: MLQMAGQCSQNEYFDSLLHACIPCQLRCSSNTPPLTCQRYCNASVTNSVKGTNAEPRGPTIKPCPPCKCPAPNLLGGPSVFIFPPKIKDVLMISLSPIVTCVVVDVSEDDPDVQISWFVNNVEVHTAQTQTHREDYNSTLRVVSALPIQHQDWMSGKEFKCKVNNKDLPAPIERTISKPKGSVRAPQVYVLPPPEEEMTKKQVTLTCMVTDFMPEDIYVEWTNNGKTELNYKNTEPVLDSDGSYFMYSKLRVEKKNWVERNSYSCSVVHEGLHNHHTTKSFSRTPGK


Columns and labels:
[1] = target: T4, recombinant human BCMA-huFc fusion protein (human); experiment: indirect ELISA, coated antigen
T4 construct: also called huBCMA-huFc
Procedure: (§1) Procedures: Human, mouse and monkey BCMA antigens were prepared into 0.5 μg/mL coating solutions with PBS buffer. The coating solutions were added to a microplate at 100 μL/well and incubated at 4° C. overnight. The residual coating solution was discarded before 3% BSA was added at 300 μL/well, and the plate was blocked for 3 h at room temperature. The microplate was washed once with PBST (PBS containing 0.1% of TWEEN 20) at 300 μL/well. The three mouse BCMA antibodies were serially 3-fold diluted from 10 μg/mL to the 7th concentration. The dilutions were added to the microplate at 100 μL/well. After a 1-h incubation at room temperature, the microplate was washed thrice with PBST at 300 μL/well. The HRP goat anti-mouse IgG antibody was 25,000-fold diluted with 1% BSA-PBST and added at 100 μL/well. After another 1-h incubation at room temperature, the microplate was washed thrice with PBST at 300 μL/well and dried. The TMB chromogenic solution was added at 100 μL/well. After a 5-min reaction at room temperature, 2 M H₂SO₄ was added at 100 μL/well to terminate the reaction. The microplate was placed on a microplate reader (Molecular Devices, SPECTRA Max plus 384) and the absorbance OD450 value was read at 450 nm wavelength.

[2] = target: T5, recombinant cynomolgus monkey BCMA-huFc (cynomolgus monkey; human); experiment: indirect ELISA, coated antigen
T5 construct: also called cynoBCMA-huFc
T5 sequence (chain, as listed by the source limits assumed): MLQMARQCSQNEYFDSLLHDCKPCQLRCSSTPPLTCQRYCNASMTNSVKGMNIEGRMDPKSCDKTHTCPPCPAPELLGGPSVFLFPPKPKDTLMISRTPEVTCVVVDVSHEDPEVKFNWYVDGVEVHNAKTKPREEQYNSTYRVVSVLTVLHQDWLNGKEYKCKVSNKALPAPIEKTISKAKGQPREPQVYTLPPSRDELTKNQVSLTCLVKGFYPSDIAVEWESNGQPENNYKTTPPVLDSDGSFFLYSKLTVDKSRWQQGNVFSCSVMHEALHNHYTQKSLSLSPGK
Procedure: as §1

[3] = target: T1, human BCMA on cells (NCI-H929, U266B1, …); experiment: flow cytometry on U266B1 cells
Procedure: (§2) The affinities of the 3 mouse antibodies for cell surface BCMA antigen were assessed using FACS. Materials: cell lines NCI-H929, U266B1, HEK293 cynoBCMA and HEK293; PBS buffer; FBS (fetal bovine serum; Gibco, 10099141); PE goat anti-mouse IgG Fc (Biolegend, 405307). Procedures: The cells were resuspended in PBS to prepare cell suspensions containing 200,000 cells. Mouse BCMA antibodies were added to a 96-well plate at 50 μL/well and serially 3-fold diluted from 3000 nM. The plate was incubated for 1 h at 4° C. 150 μL of precooled PBS containing 1% of FBS was added into the 96-well plate after the co-incubation with the primary antibody was finished. The mixtures were centrifuged at 300×g for 5 min and the supernatants were discarded. The above procedures were repeated once. The fluorescent secondary antibody PE goat anti-mouse IgG Fc was added at 80 μL/well. The plate was incubated at 4° C. for 30 min. 150 μL of precooled PBS containing 1% of FBS was added into the 96-well plate after the co-incubation with the secondary antibody was finished. The mixtures were uniformly mixed with a pipette. The 96-well plate was centrifuged at 300×g for 5 min in a plate centrifuge and the supernatants were discarded. The above procedures were repeated once. The cells were resuspended in 100 μL of PBS containing 1% of FBS and detected on a flow cytometry (BD Accuri™ C6).

[4] = target: T1, human BCMA on cells (NCI-H929, U266B1, …); experiment: flow cytometry on NCI-H929 cells
Procedure: as §2

[5] = target: T6, cynomolgus monkey BCMA on HEK293 cynoBCMA cells (cynomolgus monkey, UniProt A0A2K5UD97 1-183); experiment: flow cytometry on HEK293 cynoBCMA cells; HEK293 cynoBCMA cells
T6 construct: whole, on cells
T6 sequence (A0A2K5UD97 entry or part of it): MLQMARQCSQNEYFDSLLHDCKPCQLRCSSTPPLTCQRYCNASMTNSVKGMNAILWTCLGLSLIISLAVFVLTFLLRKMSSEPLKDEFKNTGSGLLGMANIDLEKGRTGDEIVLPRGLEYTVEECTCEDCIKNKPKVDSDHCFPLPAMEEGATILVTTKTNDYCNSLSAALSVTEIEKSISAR
Procedure: as §2

[6] = target: T2, recombinant human BCMA-his fusion …; experiment: ELISA, coated antigen
Procedure: Procedures: huBCMA-his and cynoBCMA-his antigens were prepared into 0.5 μg/mL coating solutions with PBS (pH 7.4). The coating solutions were added to a microplate at 100 μL/well and incubated at 4° C. overnight. The residual coating solution was discarded before 3% BSA was added at 300 μL/well, and the plate was blocked for 3 h at room temperature. The microplate was washed once with PB ST at 300 The stock humanized monoclonal antibody solutions were serially 3-fold diluted to the 11th concentration. The dilutions were added to the microplate at 100 μL/well. After a 1-h incubation at room temperature, the microplate was washed thrice with PBST at 300 The HRP-conjugated 6*His, His-Tag antibody was 25,000-fold diluted with 1% BSA-PBST and added at 100 After another 1-h incubation at room temperature, the microplate was washed thrice with PB ST at 300 μL/well and dried. The TMB chromogenic solution was added at 100 μL. After a 5-min reaction at room temperature, 2 M H2504 was added at 100 μL/well to terminate the reaction. The microplate was placed on a microplate reader (Molecular Devices, SPECTRA Max plus 384) and the absorbance OD450 value was read at 450 nm wavelength.

[7] = target: T3, recombinant human BCMA-mFc fusion …; experiment: indirect ELISA, coated antigen
Procedure: Procedures: Human, mouse and monkey BCMA antigens were prepared into 0.5 μg/mL coating solutions with PBS buffer. The coating solutions were added to a microplate at 100 μL/well and incubated at 4° C. overnight. The residual coating solution was discarded before 3% BSA was added at 300 μL/well, and the plate was blocked for 3 h at room temperature. The microplate was washed once with PB ST (PBS containing 0.1% of TWEEN 20) at 300 μL/well. The human-mouse chimeric monoclonal antibodies were serially 3-fold diluted from 10 μg/mL to the 9th concentration. The dilutions were added to the microplate at 100 μL/well. After a 1-h incubation at room temperature, the microplate was washed thrice with PB ST at 300 μL/well. The mouse anti-human IgG Fc antibody [HRP] mAb was 25,000-fold diluted with 1% BSA-PBST and added at 100 μL/well. After another 1-h incubation at room temperature, the microplate was washed thrice with PBST at 300 μL/well and dried. The TMB chromogenic solution was added at 100 μL/well. After a 5-min reaction at room temperature, 2 M H₂SO₄ was added at 100 μL/well to terminate the reaction. The microplate was placed on a microplate reader (Molecular Devices, SPECTRA Max plus 384) and the absorbance OD450 value was read at 450 nm wavelength.

[8] = target: T1, human BCMA on cells (NCI-H929, U266B1, …); experiment: flow cytometry on U266B1 cells; remark: listed apart in the source
Procedure: (§3) Procedures: The cells were resuspended in PBS, and the cell density was adjusted to 2×10^5 cells/well. Human-mouse chimeric monoclonal antibodies were added to a 96-well plate at 50 μL/well and serially 3-fold diluted from 3000 nM to the 9th concentration. The plate was incubated for 1 h at 4° C. 150 μL of precooled PBS containing 1% of FBS was added into the 96-well plate after the co-incubation with the primary antibody was finished. The mixtures were centrifuged at 300×g for 5 min and the supernatants were discarded. The above procedures were repeated once. The fluorescent secondary antibody PE anti-human IgG Fc (Biolegend, 409304) was added at 80 μL/well. The plate was incubated at 4° C. for 30 min. 150 μL of precooled PBS containing 1% of FBS was added into the 96-well plate after the co-incubation with the secondary antibody was finished. The 96-well plate was centrifuged at 300×g for 5 min and the supernatants were discarded. The above procedures were repeated once. The cells were resuspended in 100 μL of PBS containing 1% of FBS and detected on a flow cytometry (BD Accuri™ C6).

[9] = target: T1, human BCMA on cells (NCI-H929, U266B1, …); experiment: flow cytometry on NCI-H929 cells; remark: listed apart in the source
Procedure: as §3

[10] = target: T1, human BCMA on cells (NCI-H929, U266B1, …); experiment: flow cytometry on NCI-H929 cells; NCI-H929 cells
Procedure: as §3

[11] = target: T2, recombinant human BCMA-his fusion …; experiment: SPR (Biacore T200), anti-His capture on CM5, 1:1 fit
Procedure: In this example, the antigen-antibody binding kinetics and affinity were determined by the BIACORE method.
Procedures: The anti-histidine antibody (GE, His capture Kit, Cat. No. 28995056) was conjugated to the Sereis S Sensor Chip CMS to capture the test articles, thus acquiring the binding kinetic and affinity data of the antigen, as an analyte, to the test articles. The initial concentration for detecting the binding of the antigen and the test articles was 10 nM. […] The Start up flushing process (1×HBS-EP+buffer) was performed at least thrice before loading to equilibrate the system. The association and dissociation tendencies between the antigen and the test articles were detected. When the dissociation was completed, a regeneration reagent was loaded for regeneration before the detection of the next concentration was performed. After the detection was finished, the data were fitted by using a 1:1 Binding fitting mode in data analysis software (Biacore T200 Evaluation Software).

[12] = target: T2, recombinant human BCMA-his fusion …; experiment: competitive ELISA, coated huBCMA-his, competitor APRIL-biotin
Procedure: (§4) The 96-well microplate was treated with 100 μL of 0.5 μg/mL huBCMA-his in PBS and incubated overnight at 4° C. The plate was then washed thrice with PBS washing buffer containing 0.1% of Tween-20 and blocked with 300 μL of PBS containing 1% of BSA for 2 h. 100 μL of each BCMA antibody was added to the plate. […] The plate was incubated at 37° C. for 1 h, and unbound secondary antibody was washed with PBS washing buffer containing 0.1% of Tween-20. The TMB chromogenic solution was added at 100 μL/well. After a 5-min reaction at room temperature, 2 M H₂SO₄ was added at 100 μL/well to terminate the reaction. The microplate was placed on a microplate reader (Molecular Devices, SPECTRA Max plus 384) and the absorbance OD450 value was read at 450 nm wavelength.

[13] = target: T2, recombinant human BCMA-his fusion …; experiment: competitive ELISA, coated huBCMA-his, competitor 83A10-biotin
Procedure: as §4

[14] = target: T2, recombinant human BCMA-his fusion …; experiment: competitive ELISA, coated huBCMA-his, competitor 83A10-biotin, antibody at 7 µg/mL

Binder | EC50 [1] [nM] | EC50 [2] [nM] | EC50 [3] [nM] | EC50 [4] [nM] | EC50 [5] [nM] | EC50 [6] [nM] | EC50 [7] [nM] | EC50 [8] [nM] | EC50 [9] [nM] | EC50 [10] [nM] | Kd [11] [nM] | koff [11] [s⁻¹] | kon [11] [M⁻¹ s⁻¹] | IC50 [12] [µg/mL] | IC50 [13] [µg/mL] | competition [14] [%]
mouse monoclonal antibody 211B11H10G5 (antibody, V domains shown, detected with anti-mouse IgG; also called Clone 211B11H10G5; BCMA-HC3/BCMA-LC3) VH: EVQLQQSGPELVKPGASVKILCKASGYTITDYNMDWVKRSHGKSLEWIGNINPHNGGSIYNQKFKGKATLTVDKSSSTAFMELRSLTSEDTAVYYCARGDATLVLDYWGQGTSLTVSS VL: DIVLTQSPASLAVSLGQRATISCRASKSVSTSGLSYMHWYQQKPGQPPKVLIYLASNLESGVPARFSGSGSGTDFTLNIHPVEEEDAATYYCQHSRELPPTFGAGTKLELK | 0.0492 | 0.0309 | 24.5 | 11.9 | 30.9 |  |  |  |  |  |  |  |  |  |  | 
human-mouse chimeric antibody c-mAb1 (antibody, human IgG1, V domains shown, not shown: human IgG1 heavy chain constant region, GenBank No. AK303185.1; human kappa light chain constant region, GenBank No. MG815648.1) VH: EVQLQQSGPELVKPGTSVEMSCKASGYTFTDYNIHWVRQRHGESLEWLGYINPNNGVTNFNQKFKGKATLTVNKSSSTAYMELRSLTSDDSAVYYCSSGLFDGYPFPYWGQGTLVTVSA VL: DIVLTQSPASLVVSLGQRATISCRASKSVSTSGYNYIHWYQQKPGQPPKLLIFLASNLKSGVPARFSGGGSGTDFTLNIHPVEEDDAATYFCQHNRELPYTFGGGTKVEIK |  |  |  |  |  | 0.00158 | 0.647 | 1.9 | 7.5 | 7.5 | 0.247 | 0.00202 | 8.18e+06 | 0.0114 | 3.16 | 70

Reference: patent US20240117061A1 (WUHAN YZY BIOPHARMA, published 2024)
